± gives the uncertainty stated by the source.

From the supplement of paper PMC12042874 come the findings set out here.

The data set in a line: amyloid nucleation score (Sup35N fusion, yeast selection) (log enrichment); library NNK2; higher = more nucleation; inactive = no reads after selection. The procedure, abridged: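 Sup35N fusions to peptides of 20 random codons were expressed in psi-negative yeast, induced 24 hours with 100 μM copper sulfate, and grown 7 days at 30°C on medium lacking adenine and uracil. Input and output plasmid inserts were sequenced by Illumina. The nucleation score is the DiMSum log enrichment of output over input reads, centred on the mode score of non-aggregating sequences. Sequences with under 100 input reads were excluded.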
CHCWSELIQIFII yielded an amyloid nucleation score of 5.86 ± 0.061.

Take RRSWDTYMGERGHQLPNPCG: the amyloid nucleation score turned out to be 0.93 ± 0.36.

The substance YLGRHDYKSVGGSFIPRQSK returned an amyloid nucleation score of -0.661 ± 1.1.

In turn, DLGPLFDCCSVYGGAECCIE gave an amyloid nucleation score of -0.1 ± 0.49.

Regarding VSISKVFAAFVFLEPANTRI, the amyloid nucleation score turned out to be 5.36 ± 0.097.

VIVCCGSCLHRE displayed an amyloid nucleation score of 9.721 ± 0.05.

Turning to QFLEFHIP, the amyloid nucleation score was -0.223 ± 0.49.

In turn, THYGLMVCQTPVGRRSASCR had an amyloid nucleation score of 1.32 ± 0.28.

As for LVNNGINPPFGPSSLSRGMK, the amyloid nucleation score was -0.31 ± 0.4.

The substance AWCFSWHQKLLAR gave an amyloid nucleation score of 0.471 ± 0.36.

On to CASAFCLTRE, for which the amyloid nucleation score stood at 4.49 ± 0.057.

GVKAASGSSPKRGFYDWVKH registered an amyloid nucleation score of 0.307 ± 0.64.

In the case of GLQYQYSGLWVR, the amyloid nucleation score turned out to be 0.236 ± 0.44.

The substance YVKVVFCFDLAAMTSRRFYE showed an amyloid nucleation score of 0.228 ± 1.

SVFCRKLTLVAGGDARRDCK had an amyloid nucleation score of 0.497 ± 0.57.

As to SCDIKCWCQ, the amyloid nucleation score was found to be 3.41 ± 0.079.

For FSRYGRMRFLHCSTFSLMPI, the amyloid nucleation score was -0.07 ± 0.76.

As to GVLRENGN, the amyloid nucleation score turned out to be 0.284 ± 1.1.

Turning to KSCVGYLSAMESSVRL, the amyloid nucleation score amounted to 0.045 ± 0.79.

TLTYYPFMRYAFTVSLWFLF: the amyloid nucleation score is -1.83 ± 1.1.

With GLLPVGSVGVRVALVVMRVQ, the amyloid nucleation score was 1.35 ± 0.36.

For the substance ISRYEGRRLKCDGITFGYSG, the amyloid nucleation score was -0.031 ± 0.23.

On to EGCRMLNIYLPDFLSFLDTG, for which the amyloid nucleation score is -1.16 ± 0.78.

For the substance IDNYFIRVKTFSDFMSSLDG, the amyloid nucleation score entry was “inactive”.

For FGVLYLDFCSIA, the amyloid nucleation score stood at 3.93 ± 0.087.

SHFCVVCEYTLVSSYHR returned an amyloid nucleation score of 5.09 ± 0.09.

Turning to RVRSGKKHDW, the amyloid nucleation score is 1.01 ± 0.14.

NLRLDIAFSPWPRSGYNSGS showed an amyloid nucleation score of 0.292 ± 0.64.

In turn, DLAFNFASWLCRAKFNGSRC returned an amyloid nucleation score of 5.04 ± 0.09.

Take FMDRFLSWFCHE: the amyloid nucleation score worked out at 1.26 ± 0.37.

On to HMYLDMPAQLTS, for which the amyloid nucleation score was determined as 2.69 ± 0.062.

For HHNPGVWMKGSPCMWKIVQI, the amyloid nucleation score came out at 4.76 ± 0.076.

As for GATCTSCDRCIALVSGGRKR, the amyloid nucleation score was 0.313 ± 0.44.

With CNLSSCGHSFINLSYEDLCQ, the amyloid nucleation score result was “inactive”.

LAFGHVSVS: the amyloid nucleation score was 0.086 ± 0.55.

In turn, GNIGYCKRSFSGLQLVGCAR had an amyloid nucleation score of -0.464 ± 0.78.

Consider WFDYGR, for which the amyloid nucleation score result was “inactive”.

On to NRGFFGSYGVPELQNMDQFE, for which the amyloid nucleation score is 0.153 ± 0.79.

In turn, PVNCGWQGEDRTVEILHAHG had an amyloid nucleation score of 1.13 ± 0.28.

AYSSMCSTMRNKCCL: the amyloid nucleation score was 0.504 ± 0.6.

Regarding FTLGANLT, the amyloid nucleation score was -0.855 ± 0.76.

As to SDGQGHYVIQRTLWVTWSFR, the amyloid nucleation score was -0.707 ± 0.76.

On to TVYGHRVGGRSFVL, for which the amyloid nucleation score is 0.295 ± 0.28.

As to VWSSLGRECPSSCIVFLSVE, the amyloid nucleation score is -0.464 ± 0.78.

Substance FSIGCVMGLAINLSGFALWV registered an amyloid nucleation score of 1.84 ± 0.14.

On to PRLRAAG, for which the amyloid nucleation score was determined as 0.758 ± 0.26.

For the substance CNILH, the amyloid nucleation score is 1.36 ± 0.3.

For the substance YYFNEREK, the amyloid nucleation score entry was “inactive”.

Consider TVREKDYIEDFGVIWRKGIY, for which the amyloid nucleation score came out at 0.791 ± 0.81.

On to AYAKGYCLLSPVLDWRLHFS, for which the amyloid nucleation score is 2.52 ± 0.13.

TFVLLRSW came in with an amyloid nucleation score of 2.34 ± 0.13.

The substance EAKFGKLKGYKCTVTGECSC yielded an amyloid nucleation score of -0.391 ± 0.36.

Turning to TKPNVW, the amyloid nucleation score is -0.067 ± 0.8.

WHKFGNNRANEGRYIMHLMH returned an amyloid nucleation score of -0.282 ± 0.48.

As to AMNRFST, the amyloid nucleation score was -0.975 ± 1.1.

NLDCLYTLAS gave an amyloid nucleation score of 0.339 ± 0.8.

The substance MVMGTYVIVRLYKHKNCNAY had an amyloid nucleation score of -1.36 ± 0.55.

In the case of LCFLVFMLRPRLASLYSRML, the amyloid nucleation score was -1.11 ± 0.36.

In the case of TGSVDSSSIV, the amyloid nucleation score came to 0.093 ± 0.42.

As to YNSYVVRMGTI, the amyloid nucleation score was -0.417 ± 1.1.

On to SQVERVQFTGIRKWYGAGRS, for which the amyloid nucleation score is 4.57 ± 0.072.

In turn, PHPIDNKRMTTPNIADAPPR returned an amyloid nucleation score of 0.56 ± 0.74.

Regarding ILYGSGVFSSG, the amyloid nucleation score is -1.17 ± 1.1.

Consider NIRFTSLFRLCYFSCDSVSN, for which the amyloid nucleation score was 5.301 ± 0.035.

Substance RLILY registered an amyloid nucleation score of -0.775 ± 0.43.

The substance YQKCTRIFQILCGSACLKTR had an amyloid nucleation score of -0.649 ± 0.64.

For RIVCSNSWR, the amyloid nucleation score was -0.113 ± 1.1.

In the case of YPEDEFFQHRRWKRILSWDV, the amyloid nucleation score result is “inactive”.

On to LYWKSGEHIWYLGSILGCVG, for which the amyloid nucleation score was found to be 0.593 ± 0.56.

For the substance RFVIVIPQFYYVYFLRRSWT, the amyloid nucleation score is -1.24 ± 1.

The substance TDCIWFHYLVTLWFLIRRCP yielded an amyloid nucleation score of 0.741 ± 0.66.

GEAMSMTEQMTLTRYNYFMY: the amyloid nucleation score entry was “inactive”.

Substance NNLKLCNRTMCLVYEVCVTD registered an amyloid nucleation score of -1.23 ± 0.62.

LTMQKWLF yielded an amyloid nucleation score of 0.28 ± 0.62.

In the case of LATLRLWVTCQRIGISRRKG, the amyloid nucleation score came to 7.017 ± 0.037.

Substance RIFVIGNFVDCWLRLWT came in with an amyloid nucleation score of 0.256 ± 0.65.

In the case of EGTRIDLVKRRVNLWCI, the amyloid nucleation score is -0.296 ± 0.76.

SFLRSTSRDPKGCVKMRYFT gave an amyloid nucleation score of 1.17 ± 0.2.

Take NVVKTWPIYIMRPLWTAHSN: the amyloid nucleation score was -0.641 ± 0.31.

The substance AWGYDKAVIFGAVDLQHVGT gave an amyloid nucleation score of 0.062 ± 0.79.

Consider KVDQGMQSSLRKCPFHQIKP, for which the amyloid nucleation score was found to be 1.62 ± 0.32.

Consider SSYLTIPIIRVFLR, for which the amyloid nucleation score was found to be 0.126 ± 0.8.

For the substance LPSVDQTATS, the amyloid nucleation score is -0.481 ± 0.35.

Substance VLDSINVSVCSWRVSCVTWL registered an amyloid nucleation score of 7.709 ± 0.033.

Consider DDIFIRKLFQYS, for which the amyloid nucleation score entry was “inactive”.

Regarding WHRVFKGLS, the amyloid nucleation score was 0.658 ± 0.26.

In the case of NLAFSSSIRPLITLEGELLP, the amyloid nucleation score was -0.176 ± 1.1.

The substance MVVSFGRLGGNLRRNLKVRI returned an amyloid nucleation score of 0.214 ± 0.65.

As for TFYIYGIHSLA, the amyloid nucleation score was -0.917 ± 0.34.

DLDIC returned an amyloid nucleation score of -0.2 ± 0.3.

RSIDRYRHHNLCRNQYVM gave an amyloid nucleation score of -0.693 ± 1.1.

With SISVKGLSGRLTVRYLLILV, the amyloid nucleation score is -0.669 ± 1.

In turn, YSMVIY gave an amyloid nucleation score of -0.014 ± 0.76.

In turn, RPHTLGHRCSCQSNFFLLPL registered an amyloid nucleation score of 0.025 ± 1.1.

Turning to PPWCLNVCDMLRRSHLAFKR, the amyloid nucleation score is -0.213 ± 1.1.

For RVNTLLHILMYFNCLSGVEL, the amyloid nucleation score was 4.88 ± 0.049.

GGSMSGFLSCGMI yielded an amyloid nucleation score of -1.02 ± 0.22.

NKVVGNTNTFLEND gave an amyloid nucleation score of 3.91 ± 0.094.

Consider HHMKGAGPNNLFPGDPSGAR, for which the amyloid nucleation score came to 3.46 ± 0.065.

Consider NTLEPWMKYSMCLFDKISPT, for which the amyloid nucleation score is -0.391 ± 0.49.

Substance YHNCNQHSWYRMRCFG yielded an amyloid nucleation score of -0.417 ± 1.1.

Regarding SRFVLRFSRGLEGRTSSDMR, the amyloid nucleation score was 0.294 ± 0.42.

For the substance SQNETFFKMCVELN, the amyloid nucleation score is 0.165 ± 0.54.

QCWGMERSERSIRFVTRFFR: the amyloid nucleation score was determined as 3.5 ± 0.1.

Take RTSSL: the amyloid nucleation score was -0.336 ± 0.49.

Turning to RDFYRWNMQ, the amyloid nucleation score is 3.8 ± 0.069.

The substance DMVDLCSKDMSRALFGPNMS gave an amyloid nucleation score of 5.39 ± 0.059.

FYKGYACHITAQYNLCVDNA showed an amyloid nucleation score of -0.146 ± 1.

For the substance YWLSRSWHWKKLFGGWFALL, the amyloid nucleation score is 0.016 ± 0.54.

Consider TPNIGSSRVVMLSLQLLN, for which the amyloid nucleation score came to 6.955 ± 0.054.

In the case of SYTSGYLLVYPFVNIVVFYP, the amyloid nucleation score was -1.64 ± 1.1.

The substance NMRTNLWNIIAFLSSRSIAQ displayed an amyloid nucleation score of 0.857 ± 0.35.

TIRFS had an amyloid nucleation score of -1.58 ± 0.37.

In turn, LLSSWNKSYKIRTIGIIGNV gave an amyloid nucleation score of -0.848 ± 0.25.

Regarding FSWSYDVDIT, the amyloid nucleation score result is “inactive”.

Turning to FIHRDGYSFDQVGFMGACF, the amyloid nucleation score came out at 0.092 ± 1.1.

Substance LVLIIK showed an amyloid nucleation score of 5.96 ± 0.075.

Consider YGCLNYSRWRTSAGMDTNNG, for which the amyloid nucleation score is -0.794 ± 0.63.

In turn, DSWLGRMTRDKGNASFRSAS showed an amyloid nucleation score of 1.16 ± 0.46.

Take RLRNI: the amyloid nucleation score was 0.399 ± 0.2.

Take VLLTNQRMVFCMGRFAPRVG: the amyloid nucleation score was -0.556 ± 0.32.

Consider VCIRVRRDRKVMWDWSV, for which the amyloid nucleation score is 1.5 ± 0.24.

As for NNSGSNKSD, the amyloid nucleation score is -0.509 ± 0.78.

Consider VVNLDSF, for which the amyloid nucleation score is -1.95 ± 0.62.

In turn, SSVVFCSNPGVYGSSRWTSV gave an amyloid nucleation score of 0.492 ± 0.41.

The substance PFFVV had an amyloid nucleation score of -0.791 ± 1.1.

For THDPNLRCYFVIGTELHSRT, the amyloid nucleation score came to 0.126 ± 0.8.

Consider LSRLN, for which the amyloid nucleation score is -0.055 ± 0.53.

Take STCLTLSMRLLA: the amyloid nucleation score turned out to be 3.84 ± 0.078.

NKRLLLMFNRWDCVVSWDKC displayed an amyloid nucleation score of -1.31 ± 0.78.

As to PGHNQKERLLQLRSI, the amyloid nucleation score result is “inactive”.

Consider VSCDNASSVLFFVRTTIWCT, for which the amyloid nucleation score came out at 0.751 ± 0.74.

The substance NIGKMLRALFDMSNVRT gave an amyloid nucleation score of -1.17 ± 0.39.

LSWITPIKIGISFSLALIFT gave an amyloid nucleation score of -0.974 ± 0.49.

On to YPITPFQA, for which the amyloid nucleation score is -0.872 ± 1.1.

Turning to VYAMVGVSLACGCVSWKGHV, the amyloid nucleation score is 4.75 ± 0.086.

In the case of YCLVTRLHR, the amyloid nucleation score is 0.185 ± 0.8.

For the substance LVTLFESGFFRRLTSMDGLF, the amyloid nucleation score stood at 0.115 ± 0.51.

Substance LEPYLS displayed an amyloid nucleation score of -0.48 ± 0.49.

RGLLLSTMRGHIDSLRLS: the amyloid nucleation score result was “inactive”.

PNWPR yielded an amyloid nucleation score of 0.512 ± 0.66.

Regarding GRYNLLNKGNSAGVWCGLFS, the amyloid nucleation score was -0.324 ± 1.1.

The substance KMDRDS showed an amyloid nucleation score of -0.125 ± 0.38.
